Experimental findings from publication PMC4089486, “Structural and biochemical analyses of alanine racemase from the multidrug-resistant Clostridium difficile strain 630” (Acta Crystallographica Section D: Biological Crystallography, 2014) are described below.

As usually defined, the Km is the concentration of substrate that gives half-maximal velocity. The term Vmax denotes the top rate of the reaction or transport when substrate is in excess. Usually kcat stands for the maximal rate divided by the concentration of active sites. The stoichiometry N is the number of molecules, sites or subunits per partner or assembly.

One series concerns C[C@@H](N)C(=O)O. Nature of the series: chiral HPLC of alanine enantiomers, initial rates. Format: biochemical, Clostridioides difficile. As to conditions: D-Ala to L-Ala, 50 mM sodium borate pH 8.5, WT preparation partly cleaved at position 271.
The next series concerns C[C@H](N)C(=O)O. Nature of the series: chiral HPLC of alanine enantiomers, initial rates. It counts as biochemical, Clostridioides difficile. As to conditions: L-Ala to D-Ala, 50 mM sodium borate pH 8.5, WT preparation partly cleaved at position 271.
Series [1] addresses Clostridium difficile strain 630 alanine racemase, recombinant wild type (Clostridium difficile strain 630). Nature of the series: SEC-MALS. For orientation: Size exclusion chromatography separates by hydrodynamic size, large species first.

From the text for C[C@@H](N)C(=O)O: (§1) chiral HPLC of alanine enantiomers, initial rates on CdAlr (C. difficile alanine racemase; CdAlrWT)
From the text for C[C@H](N)C(=O)O: as §1

Consider “CdAlr (C. difficile alanine racemase; CdAlrWT) (Clostridioides difficile 630)”, for which, in the series on C[C@@H](N)C(=O)O, the Km turned out to be 7 mM, the maximal velocity (Vmax) was found to be 26.7 µmol/min/mg and the turnover number (kcat) is 19.2 s⁻¹. In the series with C[C@H](N)C(=O)O, the Km is reported as 17.6 mM and the kcat is 59.3 s⁻¹.
On to “Clostridium difficile strain 630 alanine racemase, recombinant wild type (from UniProt A0AC59G415 1-385) (enzyme)”, for which, in series [1], the stoichiometry N amounted to 2.
